The target of this assay is SARS-CoV-2 S (Wuhan)-His (1–1273 aa) expressed in HEK293T cells (SARS-CoV-2 Wuhan, UniProt P0DTC2). The assay is described as follows: western blot. As to conditions: one partner purified.

B1: anti-S2 monoclonal antibody 4A5 (antibody, V domains shown)
VH: QVKLEQSGPGILQPSQTLSLTCSFSGFSLSTSGMGVSWIRQSSGKGLEWLTHIYWDDDKRYNPSLKSRLTISKDTSRNQVFLKITSVDTADTATYYCARRRMITGLYYAMDYWGQGTSVTVSS
VL: DIVMTQSTLSLPVSFGDQVSISCRSSQSLANSYGITYLSWYLHKPGQSPQLLIYGISNRFSGVPDRFSGSGSGTDFTLKISTIKPEDLGMYYCLQGTHQPWTFGGGTKLEIK
As for B1, the binding result is on record as “binds”.

For the origin of these results see article PMC10749193 (Frontiers in Immunology, 2023).
